Measured values published in PMC5778499.

Key:
[1] = biological target: T1, Pit-1wt (UniProt P28069 1-291); assay: fluorescence anisotropy
T1 sequence: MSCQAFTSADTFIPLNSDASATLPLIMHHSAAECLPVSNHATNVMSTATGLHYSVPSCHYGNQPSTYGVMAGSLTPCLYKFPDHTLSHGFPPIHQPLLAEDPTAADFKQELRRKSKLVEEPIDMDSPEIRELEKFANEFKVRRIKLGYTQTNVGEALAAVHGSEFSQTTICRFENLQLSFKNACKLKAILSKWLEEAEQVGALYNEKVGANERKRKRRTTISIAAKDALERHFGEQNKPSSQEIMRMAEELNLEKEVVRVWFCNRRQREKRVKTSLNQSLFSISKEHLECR

[2] = biological target: T2, Pit-1ΔN (UniProt P28069 105-291); assay: fluorescence anisotropy
T2 sequence: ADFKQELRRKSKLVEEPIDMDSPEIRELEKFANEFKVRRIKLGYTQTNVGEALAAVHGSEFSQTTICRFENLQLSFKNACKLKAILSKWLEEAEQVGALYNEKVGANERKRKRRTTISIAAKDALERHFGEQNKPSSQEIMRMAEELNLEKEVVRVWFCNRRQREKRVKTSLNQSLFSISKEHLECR

[3] = biological target: T3, UHRF1 (UniProt Q96T88 1-793); assay: EMSA
T3 sequence: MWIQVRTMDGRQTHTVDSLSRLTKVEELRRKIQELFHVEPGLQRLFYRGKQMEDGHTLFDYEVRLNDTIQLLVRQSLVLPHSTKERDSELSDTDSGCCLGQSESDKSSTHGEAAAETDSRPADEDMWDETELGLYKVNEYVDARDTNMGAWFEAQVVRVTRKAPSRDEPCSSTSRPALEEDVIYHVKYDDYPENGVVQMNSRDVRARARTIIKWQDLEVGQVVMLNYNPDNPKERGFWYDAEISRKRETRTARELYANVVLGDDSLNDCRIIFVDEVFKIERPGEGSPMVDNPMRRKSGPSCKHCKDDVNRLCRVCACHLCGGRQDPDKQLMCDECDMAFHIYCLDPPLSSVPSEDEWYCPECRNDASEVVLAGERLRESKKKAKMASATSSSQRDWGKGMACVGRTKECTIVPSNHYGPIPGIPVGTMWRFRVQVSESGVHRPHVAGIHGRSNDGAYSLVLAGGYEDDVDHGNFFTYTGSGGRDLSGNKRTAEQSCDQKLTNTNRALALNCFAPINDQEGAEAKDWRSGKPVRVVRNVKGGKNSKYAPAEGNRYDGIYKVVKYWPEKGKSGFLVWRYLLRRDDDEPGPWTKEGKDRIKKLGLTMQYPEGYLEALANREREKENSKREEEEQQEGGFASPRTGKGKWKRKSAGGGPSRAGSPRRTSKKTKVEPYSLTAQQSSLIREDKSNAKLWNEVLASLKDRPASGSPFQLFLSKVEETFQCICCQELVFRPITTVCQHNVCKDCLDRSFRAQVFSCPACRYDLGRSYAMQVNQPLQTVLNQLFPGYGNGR

[4] = biological target: T1, Pit-1wt; assay: EMSA
[5] = biological target: T2, Pit-1ΔN; assay: competition
[6] = biological target: T2, Pit-1ΔN; assay: competition; remark: listed apart in the source
[7] = biological target: T2, Pit-1ΔN; assay: competition; remark: listed apart in the source
[8] = biological target: T2, Pit-1ΔN; assay: fluorescence anisotropy; remark: listed apart in the source
[9] = biological target: T4, Pit-1ΔNΔC (UniProt P28069 124-273); assay: gel filtration
T4 sequence: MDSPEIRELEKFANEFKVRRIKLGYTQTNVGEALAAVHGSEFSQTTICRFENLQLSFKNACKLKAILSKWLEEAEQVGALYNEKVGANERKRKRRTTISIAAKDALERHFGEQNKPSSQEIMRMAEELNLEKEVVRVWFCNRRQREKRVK

B1: f8x (dsDNA)
DNA 1: CACCCATTCATTCATTCATTCATTCATTCATTCATTCAG
DNA 2: CTGAATGAATGAATGAATGAATGAATGAATGAATGGGTG
For B1, the Kd [1] was 35 nM and the Kd [2] was 27 nM.

B2: f0x (dsDNA)
DNA 1: TGTCCTCTTCCTGCTATGTCATGGCTTATCTTCTTTCACCCAGCAGTATTAGTCAATGTCTCTTGTATGCCTGGCACCT
DNA 2: AGGTGCCAGGCATACAAGAGACATTGACTAATACTGCTGGGTGAAAGAAGATAAGCCATGACATAGCAGGAAGAGGACA
B2 showed a Kd [1] of 167 nM.

B3: 8xCATT 111 biotin (dsDNA)
DNA 1: TGTCCTCTTCCTGCTATGTCATGGCTTATCTTCTTTCACCCATTCATTCATTCATTCATTCATTCATTCATTCAGCAGTATTAGTCAATGTCTCTTGTATGCCTGGCACCT
DNA 2: AGGTGCCAGGCATACAAGAGACATTGACTAATACTGCTGAATGAATGAATGAATGAATGAATGAATGAATGGGTGAAAGAAGATAAGCCATGACATAGCAGGAAGAGGACA
In the case of B3, the Kd [3] is reported as greater than 1000 nM and the binding result [4] is reported as “binds”.

B4: u8x111 (dsDNA)
DNA 1: B3 DNA 1
DNA 2: B3 DNA 2
B4: binds [5].

B5: u5x99 (dsDNA)
DNA 1: TGTCCTCTTCCTGCTATGTCATGGCTTATCTTCTTTCACCCATTCATTCATTCATTCATTCAGCAGTATTAGTCAATGTCTCTTGTATGCCTGGCACCT
DNA 2: AGGTGCCAGGCATACAAGAGACATTGACTAATACTGCTGAATGAATGAATGAATGAATGGGTGAAAGAAGATAAGCCATGACATAGCAGGAAGAGGACA
B5: binds [5].

B6: uhGH (dsDNA)
DNA 1: GAGGAGCTTCTAAATTATCCATTAGCACAAGCCCGTCAGTGGCCCCATGCATAAATGTACACAGAAACAG
DNA 2: CTGTTTCTGTGTACATTTATGCATGGGGCCACTGACGGGCTTGTGCTAATGGATAATTTAGAAGCTCCTC
B6: binds [6].

B7: u4x (4xCATT) (dsDNA)
DNA 1: CACCCATTCATTCATTCATTCAG
DNA 2: CTGAATGAATGAATGAATGGGTG
B7: binds [7].

B8: f4x (dsDNA)
DNA 1: CACCCATTCATTCATTCATTCAG
DNA 2: CTGAATGAATGAATGAATGGGTG
B8: binds [8].

B9: 4xCATT crystallization duplex (f4xCrystF/f4xCrystRC) (dsDNA)
DNA 1: CCATTCATTCATTCATTCGGA
DNA 2: CCGAATGAATGAATGAATGGT
B9: binds [9].
